Reference: the supplement of paper PMC9112550, “Optimization of the antimicrobial peptide Bac7 by deep mutational scanning” (BMC Biology, 2022)

The sequences below were run on Escherichia coli TOP10 (assay: shrunken log2 fold change of peptide-encoding DNA abundance (4.5 h post-induction vs induction); higher = less antimicrobial activity (less host growth inhibition)). Conditions: time post-induction: 4.5 h; library: site-saturation at positions 5, 18, 19, 20.
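Also: peptides expressed intracellularly from a pBAD plasmid library in pooled LB shake-flask culture, induced with 0.3% L-arabinose, DNA abundance read by NGS, three biological replicates, DESeq2 with apeglm shrinkage.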

In order of rising “shrunken log2 fold change” value:
1. RRIRHRPPRLPRPRPRPFYTPRP  -1.02
2. RRIRYRPPRLPRPRPRPNRNPRP  -1
3. RRIRERPPRLPRPRPRPNDNPRP  -0.882
4. RRIRQRPPRLPRPRPRPDCLPRP  -0.793
5. RRIRIRPPRLPRPRPRPTMFPRP  -0.763
6. RRIRNRPPRLPRPRPRPLYKPRP  -0.561
7. RRIRNRPPRLPRPRPRPTSIPRP  -0.531
8. RRIRNRPPRLPRPRPRPIVYPRP  -0.528
9. RRIRNRPPRLPRPRPRPMVEPRP  -0.481
10. RRIRERPPRLPRPRPRPCFYPRP  -0.43
11. RRIRVRPPRLPRPRPRPVNMPRP  -0.418
12. RRIRTRPPRLPRPRPRPAYMPRP  -0.384
13. RRIRQRPPRLPRPRPRPDNHPRP  -0.35
14. RRIRERPPRLPRPRPRPCPWPRP  -0.278
15. RRIRKRPPRLPRPRPRPWMLPRP  -0.266
16. RRIRLRPPRLPRPRPRPSMYPRP  -0.261
17. RRIRSRPPRLPRPRPRPFGMPRP  -0.25
18. RRIRTRPPRLPRPRPRPCNAPRP  -0.228
19. RRIRERPPRLPRPRPRPWYQPRP  -0.219
20. RRIRSRPPRLPRPRPRPPFSPRP  -0.217
21. RRIRYRPPRLPRPRPRPGRDPRP  -0.204
22. RRIRTRPPRLPRPRPRPGYCPRP  -0.184
23. RRIRCRPPRLPRPRPRPDIDPRP  -0.182
24. RRIRWRPPRLPRPRPRPCTQPRP  -0.177
25. RRIRRRPPRLPRPRPRPLDLPRP  -0.158
26. RRIRPRPPRLPRPRPRPQMKPRP  -0.151
27. RRIRMRPPRLPRPRPRPQWNPRP  -0.149
28. RRIRERPPRLPRPRPRPWGHPRP  -0.118
29. RRIRPRPPRLPRPRPRPNDLPRP  -0.111
30. RRIRNRPPRLPRPRPRPMACPRP  -0.109
31. RRIRQRPPRLPRPRPRPFSWPRP  -0.0597
32. RRIRPRPPRLPRPRPRPSVFPRP  -0.0552
33. RRIRYRPPRLPRPRPRPAVRPRP  -0.0403
34. RRIRPRPPRLPRPRPRPVHTPRP  -0.036
35. RRIRQRPPRLPRPRPRPEFHPRP  -0.0296
36. RRIRQRPPRLPRPRPRPHCYPRP  -0.0282
37. RRIRERPPRLPRPRPRPDYVPRP  -0.00136
38. RRIRYRPPRLPRPRPRPYACPRP  0.00253
39. RRIRNRPPRLPRPRPRPISIPRP  0.0125
40. RRIRCRPPRLPRPRPRPRIVPRP  0.0193
41. RRIRNRPPRLPRPRPRPAIAPRP  0.0215
42. RRIRARPPRLPRPRPRPVKAPRP  0.0269
43. RRIRHRPPRLPRPRPRPREFPRP  0.0275
44. RRIRSRPPRLPRPRPRPHQGPRP  0.0275
45. RRIRNRPPRLPRPRPRPCGDPRP  0.0293
46. RRIRYRPPRLPRPRPRPNVMPRP  0.0307
47. RRIRSRPPRLPRPRPRPGWKPRP  0.0342
48. RRIRQRPPRLPRPRPRPAWMPRP  0.0361
49. RRIRHRPPRLPRPRPRPNVIPRP  0.0378
50. RRIRDRPPRLPRPRPRPTRFPRP  0.0657
51. RRIRARPPRLPRPRPRPTKKPRP  0.0778
52. RRIRDRPPRLPRPRPRPEPQPRP  0.0781
53. RRIRMRPPRLPRPRPRPSHDPRP  0.0846
54. RRIRRRPPRLPRPRPRPWGPPRP  0.0858
55. RRIRGRPPRLPRPRPRPHQQPRP  0.101
56. RRIRFRPPRLPRPRPRPVLRPRP  0.113
57. RRIRSRPPRLPRPRPRPATIPRP  0.115
58. RRIRYRPPRLPRPRPRPLPKPRP  0.116
59. RRIRRRPPRLPRPRPRPQFPPRP  0.133
60. RRIRMRPPRLPRPRPRPFTDPRP  0.174
61. RRIRDRPPRLPRPRPRPAEIPRP  0.184
62. RRIRGRPPRLPRPRPRPANSPRP  0.186
63. RRIRPRPPRLPRPRPRPAGNPRP  0.194
64. RRIRTRPPRLPRPRPRPLLWPRP  0.223
65. RRIRIRPPRLPRPRPRPGSWPRP  0.227
66. RRIRWRPPRLPRPRPRPQTAPRP  0.282
67. RRIRWRPPRLPRPRPRPQSRPRP  0.299
68. RRIRPRPPRLPRPRPRPKAAPRP  0.386
69. RRIRDRPPRLPRPRPRPRCGPRP  0.565
70. RRIRCRPPRLPRPRPRPQMRPRP  0.611
71. RRIRDRPPRLPRPRPRPSMMPRP  0.636
72. RRIRERPPRLPRPRPRPPREPRP  0.87
73. RRIRGRPPRLPRPRPRPVRTPRP  1.3
74. RRIRGRPPRLPRPRPRPKEEPRP  1.58
75. RRIRGRPPRLPRPRPRPEMLPRP  1.71
